# Data reported in US10987431B2, “Preparation method of adiposomes, and use thereof” (Institute Of Biophysics, Chinese Academy Of Sciences, priority 2015, dated 2021).
# B1: ATGL: functional protein adipose triacylglycerol lipase, SEQ ID NO: 8 (protein)
# chain: MFPREKTWNISFAGCGFLGVYYVGVASCLREHAPFLVANATHIYGASAGALTATALVTGVCLGEAGAKFIEVSKEARKRFLGPLHPSFNLVKIIRSFLLKVLPADSHEHASGRLGISLTRVSDGENVIISHFNSKDELIQANVCSGFIPVYCGLIPPSLQGVRYVDGGISDNLPLYELKNTITVSPFSGESDICPQDSSTNIHELRVTNTSIQFNLRNLYRLSKALFPPEPLVLREMCKQGYRDGLRFLQRNGLLNRPNPLLALPPARPHGPEDKDQAVESAQAEDYSQLPGEDHILEHLPARLNEALLEACVEPTDLLTTLSNMLPVRLATAMMVPYTLPLESALSFTIRLLEWLPDVPEDIRWMKEQTGSICQYLVMRAKRKLGRHLPSRLPEQVELRRVQSLPSVPLSCAAYREALPGWMRNNLSLGDALAKWEECQRQLLLGLFCTNVAFPPEALRMRAPADPAPAPADPASPQHQLAGPAPLLSTPAPEARPVIGALGL
# modifications: ATGL protein
# B2: MLDS proteins: lipid droplet resident protein of oleaginous bacterium RHA1, SEQ ID NO: 2 (protein)
# chain: MTDQKTIDSVKTSLYAAVGAGDVVVQAVADVVAQVRSRAESTQGDVEERVGGAKERIAGLQEEVTEGVENLRDRLAGLPSELPEELAELREKFTADELRKVAEAYLKVASDLYTSLAERGEDTVERIRKQPVVEEGIGRAETAFGDAVELTEEALGTVARQTRAVGEQAAKLAGRASGRISDTAEGLGEAIADAGDEAALKVLDLGDQAEEASKDAADRVTATAADVQARADKAAPAKHAAPAKKAAPAKAAATPAPAPAKKAAAPAKKAAPAKKA
# modifications: MLDS protein
# B3: Perilipin-2 proteins: lipid droplet resident protein of mammals, SEQ ID NO: 6, expressed with SMT3 tag cleaved by Ulp1 (protein)
# chain: MASVAVDPQPSVVTRVVNLPLVSSTYDLMSSAYLSTKDQYPYLKSVCEMAENGVKTITSVAMTSALPIIQKLEPQIAVANTYACKGLDRIEERLPILNQPSTQIVANAKGAVTGAKDAVTTTVTGAKDSVASTITGVMDKTKGAVTGSVEKTKSVVSGSINTVLGSRMMQLVSSGVENALTKSELLVEQYLPLTEEELEKEAKKVEGFDLVQKPSYYVRLGSLSTKLHSRAYQQALSRVKEAKQKSQQTISQLHSTVHLIEFARKNVYSANQKIQDAQDKLYLSWVEWKRSIGYDDTDESHCAEHIESRTLAIARNLTQQLQTTCHTLLSNIQGVPQNIQDQAKHMGVMAGDIYSVFRNAASFKEVSDSLLTSSKGQLQKMKESLDDVMDYLVNNTPLNWLVGPFYPQLTESQNAQDQGAEMDKSSQETQRSEHKTH
# modifications: Perilipin-2 protein
# B4: MDT-28 proteins: nematode lipid droplet resident protein, SEQ ID NO: 4 (protein)
# chain: MTDVEQPVSVEDQQAQAQSYYDQVLGNAYVQTAINAYTKTKEFHPLLNSTLNSAEEKVSTVGNYAAQKAYDGYNSYYVKPKNTAYEAVSYGTERAKTAVESGKQAAIVGGTFGIGAAVVLTQFSLALSAGGAALVLEQVDSAKKLGSSAISTIKEAELAVEHRIFSALHQAQRIAMVPVEKITENTNSLLDILDGAVQKGLNIEVPPSVNLTIGQRVKNLASLIVQGVSNKLFKAHDHVIDPINERARNYLEQLSQSFVLLDIVREKKTWVIEKSNELSTSVFDFKKTLEEEAQKYKVAPEEMLMKHIQSTSEQLSTQLQSLREKGQNVFGDGTKIDSTIDYLENLKKNFTDAEDVYKVRDEVLNEGRQRIAELSTWTTSLLIISAEWQFEPEDLLIEELYFDAPPPVRTRNLYRNRA
# modifications: MDT-28 protein
# Tests used:
# adiposome a [1] = experiment: Recruitment of resident proteins, functional proteins and apolipoprotein to adiposomes (SDS-PAGE, silver staining); format: binding
# Experimental: a1, 5 μg SMT3-Perilipin-2 proteins, 25 ng Ulp1 and 500 adiposome a prepared in Example 1 were mixed to obtain 1000 mixed system.
# a2, After the step a1 was completed, a mixed system was obtained by incubating at room temperature for 1 h (the practical operation may be performed on ice).
# a3, After the step a2 was completed, the mixed system was taken to centrifuge at 20000 g for 5 min, and the liquid phase system presented two layers (the upper layer was adiposomes). The lower solution was drawn out and the upper layer was kept.
# a4, The upper layer after the step a3 was resuspended into 1000 buffer B and centrifuged at 20000 g for 5 min, and the liquid phase system presented two layers (the upper layer was adiposomes). The lower solution was drawn out and the upper layer was kept.
# a5, The upper layer after the step a4 was resuspended into 1000 buffer B and centrifuged at 20000 g for 5 min, and the liquid phase system presented two layers. The lower solution was drawn out and the upper layer was kept (i.e., adiposomes).
# 5 μg SMT3-Perilipin-2 proteins, adiposomes obtained in the step a5 and the lower solution drawn in the step a3 were all subjected to SDS-PAGE, followed by silver staining detection.
# b1, 5 μg MLDS proteins and 50 μl adiposome a prepared in Example 1 were mixed to obtain 1000 mixed system.
# b2, After the step b1 was completed, a mixed system was obtained by incubating at room temperature for 1 h (the practical operation may be performed on ice).
# b3, After the step b2 was completed, the mixed system was taken to centrifuge at 20000 g for 5 min, and the liquid phase system presented two layers (the upper layer was adiposomes). The lower solution was drawn out and the upper layer was kept.
# b4, The upper layer after the step b3 was resuspended into 1000 buffer B and centrifuged at 20000 g for 5 min, and the liquid phase system presented two layers (the upper layer was adiposomes). The lower solution was drawn out and the upper layer was kept.
# b5, The upper layer after the step b4 was resuspended into 1000 buffer B and centrifuged at 20000 g for 5 min, and the liquid phase system presented two layers. The lower solution was drawn out and the upper layer was kept (i.e., adiposomes).
# 5 μg MLDS proteins, adiposomes obtained in the step b5 and the lower solution drawn in the step b3 were all subjected to SDS-PAGE, followed by silver staining detection.
# The MLDS proteins in the step (2) were replaced with MDT-28 proteins, without other changes in other steps. The results were seen from lanes 4, 5 and 6 in FIG. 6 (lane 4 was total proteins (MDT-28 proteins), lane 5 was adiposome recruited proteins, and lane 6 was solution proteins). […] The adiposomes recruited with MDT-28 proteins were named as artificial lipid droplet MDT-28.
# The MLDS proteins in the step (2) were replaced with Bovine serum albumin, without other changes in other steps. The results were seen from lanes 11, 12 and 13 in FIG. 6 (lane 11 was total proteins (Bovine serum albumin), lane 12 was adiposome recruited proteins, and lane 13 was solution proteins).
# SMT3-Perilipin-2 proteins in the (1) of step 1 were replaced with SMT3-ATGL proteins, and 50 μl adiposome a was replaced with 30 μl adiposome a, without other changes in other steps, to obtain adiposomes recruited with ATGL.
# 5 μg MLDS proteins in the (2) of step 1 were replaced with 9 μg Apo A-I, without other changes in other steps, to obtain adiposomes recruited with Apo A-I. The results were seen from B in FIG. 10 (lane 1 was adiposome recruited proteins, lane 2 was solution proteins, and lane 3 was total proteins (Apo A-I)). […] The adiposome recruited with Apo A-I was named as artificial lipoprotein Apo A-I.
# adiposome a [2] = experiment: Determination of protein saturation degree on adiposomes; format: binding; settings: Western blot
# Experimental: Determination of protein saturation degree: SMT3-Perilipin-2 proteins, 25 ng Ulp1 and 30 μl adiposome a prepared in Example 1 were mixed to obtain 50 μl mixed system, and the concentrations of SMT3-Perilipin-2 proteins in the mixed system were 0.015 μg/μl, 0.030 μg/μl, 0.056 μg/μl, 0.080 μg/μl, 0.101 μg/μl, 0.137 μg/μl, 0.166 μg/μl or 0.191 μg/μl. Then, artificial lipid droplets were obtained according to the above steps a2 to a5, and were subjected to SDS-PAGE, followed by staining with colloid blue, or were subjected to Western blot detection using Perilipin-2 antibody as primary antibody. The results were seen from C in FIG. 7 (in which a was the result of colloid blue staining, b was the result of Western blot detection).
# Determination of protein saturation degree: SMT3-ATGL proteins, and 500 adiposome a prepared in Example 1 were mixed to obtain 1000 mixed system, and the concentrations of SMT3-ATGL proteins in the mixed system were 0.091 μg/μl, 0.132 μg/μl, 0.171 μg/μl, 0.209 μg/μl, 0.244 μg/μl, 0.278 μg/μl or 0.310 μg/μl. Then artificial lipid droplets were obtained according to the a2 to a5 of step 1, and were subjected to SDS-PAGE, followed by silver staining, or were subjected to Western blot detection using ATGL antibody (Cell Signaling Technology, Danvers, Mass., the product item: 2138) as primary antibody. […]
# [3] = incubating at room temperature for 1 h, SDS-PAGE, silver staining
Molecule,proteins recruited to adiposome a (adiposome a [1]; [3]),also measured
"Apo A-I: apolipoprotein A1 from human, purified per Peitsch et al. 1989",about 50%,
"Bovine serum albumin: purchased from Sigma, product item A4612; control protein [reference compound]",,recruitment to adiposome a (in words) (adiposome a [1]; [3]): no Bovine serum albumin was recruited
B1,,"protein concentration in the reaction system at which recruitment on adiposomes reached saturation (adiposome a [2]; 0.091-0.310 μg/μl SMT3-ATGL proteins, silver staining): 0.209 µg/µL; fraction of protein recruited to adiposome a (adiposome a [1]; SMT3-ATGL proteins, 30 μl adiposome a, incubating at normal temperature or 4° C.): about ⅓"
B2,about 80%,
B3,about 50%,"recruitment on adiposomes, saturation (in words) (adiposome a [2]; 0.015-0.191 μg/μl SMT3-Perilipin-2 proteins, colloid blue staining): saturable"
B4,about 90%,
